T1: FcRL1, overexpressed on 3T3 cells (UniProt Q96LA6 17-429, limits assumed)
T1 construct: whole, on cells
T1 sequence (looked up): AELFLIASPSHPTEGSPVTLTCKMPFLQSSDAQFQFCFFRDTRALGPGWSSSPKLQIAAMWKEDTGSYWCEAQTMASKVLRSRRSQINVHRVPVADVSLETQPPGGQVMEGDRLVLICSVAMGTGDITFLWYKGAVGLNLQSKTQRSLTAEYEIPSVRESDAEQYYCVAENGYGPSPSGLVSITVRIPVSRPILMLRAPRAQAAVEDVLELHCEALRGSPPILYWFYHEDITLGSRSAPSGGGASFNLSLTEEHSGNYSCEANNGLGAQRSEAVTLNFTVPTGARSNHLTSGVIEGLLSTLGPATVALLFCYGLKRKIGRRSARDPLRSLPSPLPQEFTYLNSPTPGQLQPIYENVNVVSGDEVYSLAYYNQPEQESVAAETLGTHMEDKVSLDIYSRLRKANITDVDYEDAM

T2: FcRL2, overexpressed on 3T3 cells (UniProt Q96LA5 20-508, limits assumed)
T2 construct: whole, on cells
T2 sequence (looked up): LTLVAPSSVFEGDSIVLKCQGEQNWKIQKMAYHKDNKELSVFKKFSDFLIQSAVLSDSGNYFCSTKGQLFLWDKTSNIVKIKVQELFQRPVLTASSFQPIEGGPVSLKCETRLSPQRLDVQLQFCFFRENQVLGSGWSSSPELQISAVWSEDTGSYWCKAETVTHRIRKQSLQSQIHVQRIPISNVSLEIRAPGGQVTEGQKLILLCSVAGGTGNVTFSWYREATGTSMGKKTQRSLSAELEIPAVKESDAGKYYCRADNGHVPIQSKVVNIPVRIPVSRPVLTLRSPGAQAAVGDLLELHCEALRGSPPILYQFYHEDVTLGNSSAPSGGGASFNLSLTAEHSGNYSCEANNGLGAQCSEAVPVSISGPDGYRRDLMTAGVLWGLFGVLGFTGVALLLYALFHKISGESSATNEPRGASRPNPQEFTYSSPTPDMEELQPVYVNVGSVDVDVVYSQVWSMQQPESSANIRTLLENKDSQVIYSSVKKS

T3: Fc Receptor-like 5 (FcRL5), full length, overexpressed on 3T3 or Raji cells (human, UniProt Q96RD9 16-977)
T3 construct: also called 3T3-FcRL5
T3 sequence: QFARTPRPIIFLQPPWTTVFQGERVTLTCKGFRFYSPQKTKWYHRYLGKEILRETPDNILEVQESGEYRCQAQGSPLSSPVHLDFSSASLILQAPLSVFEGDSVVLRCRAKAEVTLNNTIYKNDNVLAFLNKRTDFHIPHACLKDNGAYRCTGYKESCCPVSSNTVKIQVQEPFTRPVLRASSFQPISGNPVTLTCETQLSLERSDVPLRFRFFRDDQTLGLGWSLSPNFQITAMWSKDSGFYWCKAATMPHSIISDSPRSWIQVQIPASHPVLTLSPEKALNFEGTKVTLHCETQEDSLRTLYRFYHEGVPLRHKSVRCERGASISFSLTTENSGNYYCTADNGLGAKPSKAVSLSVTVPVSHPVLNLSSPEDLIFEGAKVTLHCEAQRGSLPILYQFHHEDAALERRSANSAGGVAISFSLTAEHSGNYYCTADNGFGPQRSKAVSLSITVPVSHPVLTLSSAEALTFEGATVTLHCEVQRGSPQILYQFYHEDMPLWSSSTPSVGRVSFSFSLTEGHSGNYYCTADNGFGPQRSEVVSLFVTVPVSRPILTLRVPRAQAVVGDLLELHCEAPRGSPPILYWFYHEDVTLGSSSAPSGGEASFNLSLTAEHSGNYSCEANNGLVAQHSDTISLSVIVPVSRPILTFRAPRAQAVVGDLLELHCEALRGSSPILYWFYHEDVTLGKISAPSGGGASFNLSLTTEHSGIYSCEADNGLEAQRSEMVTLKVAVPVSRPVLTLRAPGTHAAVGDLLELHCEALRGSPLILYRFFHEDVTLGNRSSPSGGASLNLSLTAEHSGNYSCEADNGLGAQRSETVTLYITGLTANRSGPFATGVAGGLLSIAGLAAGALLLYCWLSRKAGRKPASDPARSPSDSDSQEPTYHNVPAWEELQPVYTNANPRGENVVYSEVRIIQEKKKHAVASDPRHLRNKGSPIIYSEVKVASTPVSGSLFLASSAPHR

T4: FcRL3, overexpressed on 3T3 cells (UniProt Q96P31 18-734, limits assumed)
T4 construct: whole, on cells
T4 sequence (looked up): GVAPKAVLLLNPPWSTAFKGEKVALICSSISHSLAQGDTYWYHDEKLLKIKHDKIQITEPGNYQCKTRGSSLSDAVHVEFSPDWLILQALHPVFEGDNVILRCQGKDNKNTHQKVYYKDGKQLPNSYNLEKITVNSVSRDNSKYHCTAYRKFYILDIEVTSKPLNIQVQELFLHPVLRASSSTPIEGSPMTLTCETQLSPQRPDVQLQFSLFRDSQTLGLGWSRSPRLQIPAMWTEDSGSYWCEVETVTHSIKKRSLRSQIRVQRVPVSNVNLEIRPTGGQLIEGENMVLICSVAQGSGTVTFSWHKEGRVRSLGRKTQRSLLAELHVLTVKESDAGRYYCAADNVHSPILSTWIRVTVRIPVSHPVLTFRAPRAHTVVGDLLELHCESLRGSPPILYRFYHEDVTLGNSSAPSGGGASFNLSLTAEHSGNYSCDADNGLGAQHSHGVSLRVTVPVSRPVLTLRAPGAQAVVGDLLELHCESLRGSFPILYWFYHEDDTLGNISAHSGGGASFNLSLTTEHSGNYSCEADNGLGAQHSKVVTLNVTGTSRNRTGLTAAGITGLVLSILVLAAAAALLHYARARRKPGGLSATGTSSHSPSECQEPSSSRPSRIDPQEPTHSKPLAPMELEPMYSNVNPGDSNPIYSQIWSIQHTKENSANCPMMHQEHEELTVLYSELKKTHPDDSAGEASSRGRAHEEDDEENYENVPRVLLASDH

B1: ET200-038 (scFv)
scFv: QSVLTQPPSVSGAPGQRVTISCTGSSSNIGAGFDVHWYQLLPGTAPKLLIYANSNRPSGVPDRFSGSKSGTSASLAITGLLAEDEADYYCQSYDSSLSGVVFGGGTKLTVLGSRGGGGSGGGGSGGGGSLEMAQVQLVQSGAEVKKPGSSVKVSCKASGGTFSSYAISWVRQAPGQGLEWMGGIIPIFGTANYAQKFQGRVTITADESTSTAYMELSSLRSEDTAVYYCARGASFDRHDNWGQGTLVTVSSTSGQAGQHHHHHHGAYPYDVPDYAS
notes: screened as phage clone; entry is VL-linker-VH-His tag-HA tag
B2: ET200-069 (scFv)
scFv: QSVVTQPPSASGTPGQRVTISCSGSSSNIGSNYVYWYQQLPGTAPKLLIYSNNQRPSGVPDRFSGSKSGTSASLAISGLRSEDEADYYCAAWDDSLSGYVFGTGTKLTVLGSRGGGGSGGGGSGGGGSLEMAQVQLQQWGAGLLKPSETLSLTCAVYGGSFSGYYWSWIRQPPGKGLEWIGEINHSGSTNYNPSLKSRVTISVDTSKNQFSLKLSSVTAADTAVYYCARLYEGGYHGWGSWLSSDSWGQGTLVTVSSTSGQAGQHHHHHHGAYPYDVPDYAS
notes: screened as phage clone; entry is VL-linker-VH-His tag-HA tag; also called ET200-69
B3: ET200-003 (scFv)
scFv: QSVLTQPPSVSVSPGQTASISCSGNKLGTKYVYWYQKRPGQSPVLVMYEDNQRPSGIPERFSGSNSGNTATLTIRGTQTVDEADYYCQAWDSDTFVVFGGGTKVTVLGSRGGGGSGGGGSGGGGSLEMAEVQLVETGGGVVQPGRSLRLSCAASGFTFSSYGMHWVRQAPGKGLEWVAVISHDGSNKYYADSVKGRFTISRDNSKDTLYLQMNSLRGEDTAVYYCARSNQWSGYFSFDYWGQGTLVTVSSTSGQAGQHHHHHHGAYPYDVPDYAS
notes: as for B1
B4: ET200-079 (scFv)
scFv: SYELTQPPSASGTPGQRVTISCSGSSSNIGSNYVYWYQQLPGTAPKLFIYRNNQRPSGVPDRFSGSKSGTSASLAISGLRSEDEADYYCAAWDDSLSGYLFGTGTKVTVLGSRGGGGSGGGGSGGGGSLEMAEVQLVESGGGLVQPGRSLRLSCAASGFTFDDYAMHWVRQAPGKGLEWVSGISWNSGSIGYADSVKGRFTISRDNAKNSLYLQMNSLRAEDTALYYCANGDSNYYYGMDVWGQGTTVTVSSTSGQAGQHHHHHHGAYPYDVPDYAS
notes: as for B1
B5: ET200-042 (scFv)
scFv: QSVVTQPPSVSGAPGQTVTISCTGGSSNIGTGYFVNWYQQVPGKAPKLLILGNNNRPSGVPDRLSGSTSGTSASLAITGLQAEDEGTYYCQSYDSSLSGYVFGTGTKVTVLGSRGGGGSGGGGSGGGGSLEMAQVQLQQSGPGLVKPSQTLSLTCGISGDSVSTNSVAWHWIRQSPSRGLEWLGRTYYRSKWSNDYGVSVKSRITIIPDTSKNQFSLQLNSVTPEDTAVYYCARSSSWYQIFDYWGQGTLVTVSSTSGQAGQHHHHHHGAYPYDVPDYAS
notes: as for B1
B6: ET200-044 (scFv)
scFv: QSVLTQPPSVSVSPGQTATIACSGHKLGDKYASWYQQKSGQSPVLIIYQDNKRPSGIPERFSGSNSGNTATLTISGTQALDEADYYCQAWDSSTYVAFGGGTKLTVLGSRGGGGSGGGGSGGGGSLEMAQVQLQESGPGLVKPSETLSLTCVVSGGSISSSNWWSWVRQPPGKGLEWIGEIYHSGSPNYNPSLKSRVTISVDKSKNQFSLKLSSVTAADTAVYYCARMTTHTFGYDAWGQGTLVTVSSTSGQAGQHHHHHHGAYPYDVPDYAS
notes: as for B1
B7: ET200-045 (scFv)
scFv: QPVLTQPPSVSVAPGKTATITCGGNNIGSESVHWYHQKPGQAPVLVIYDDAGRPSGIPERFTGSNSGNTATLTISRVEAGDEADYYCQVWDRNSAQFVFGPGTKVTVLGSRGGGGSGGGGSGGGGSLEMAEVQLVQSGAEVKKPGASVKVSCKASGYTFTSYGISWVRQAPGQGLEWMGWISAYNGNTNYAQKLQGRVTMTTDTSTSTAYMELRSLRSDDTAVYYCARGVHLDWWGQGTLVTVSSTSGQAGQHHHHHHGAYPYDVPDYAS
notes: as for B1
B8: ET200-041 (scFv)
scFv: NFMLTQPHSVSGSPGKTVTISCTGSSGSIADNFVQWYQQRPGGVPTTVIFNDDERPSGVPDRFSGSIDTSSNSASLTISGLKTEDEADYYCQSYDNNNRGVFGGGTKLTVLGSRGGGGSGGGGSGGGGSLEMAQVQLVQSGAEVKKPGSSVKVSCKASGGTFSSYAISWVRQAPGQGLEWMGWMNPNSGNTGYAQKFQGRVTMTRNTSISTAYMELSNLRSEDTAVYYCARYYSYGYDWGQGTLVTVSSTSGQAGQHHHHHHGAYPYDVPDYAS
notes: as for B1
B9: ET200-040 (scFv)
scFv: QSVLTQPPSVSGAPGQRVTISCTGSSSNIGAGYDVHWYQQLPGTAPKLLIYGNSNRPSGVPDRFSGSKSGTSASLAITGLQAEDEADYYCQSYDSSLSGYVFGTGTKVTVLGSRGGGGSGGGGSGGGGSLEMAQVQLVQSGAEVKKPGASVKVSCKVSGYTLTELSMHWVRQAPGKGLEWMGGFDPEDGETIYAQKFQGRVTMTEDTSTDTAYMELSSLRSEDTAVYYCARYSGVYYDWGQGTLVTVSSTSGQAGQHHHHHHGAYPYDVPDYAS
notes: as for B1

What was measured:
[1] = molecular target: T1, FcRL1, overexpressed on 3T3 cells; experiment: phage clone on 3T3-FcRL1 cells
[2] = molecular target: T2, FcRL2, overexpressed on 3T3 cells; experiment: phage clone on 3T3-FcRL2 cells
[3] = molecular target: T3, Fc Receptor-like 5 (FcRL5), full …; experiment: phage clone screening on cells
How it was run: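 Cell-surface binding was read by flow cytometry using anti-M13 coat protein mAb and PE-labelled anti-mouse Ig. Selected scFv phage were screened on FcRL5-overexpressing 3T3 cells, with 3T3 lines bearing FcRL1, 2, 3, 4 or 6 as negative controls.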

[4] = molecular target: T4, FcRL3, overexpressed on 3T3 cells; experiment: phage clone on 3T3-FcRL3 cells

Binder | binding result [1] | binding result [2] | binding result [3] | binding result [4]
B1 | no binding | no binding | binds | no binding
B2 | no binding | no binding | binds | no binding
B3 | no binding | no binding | binds | no binding
B4 | no binding | no binding | binds | no binding
B5 | no binding | no binding | binds | no binding
B6 | no binding | no binding | binds | no binding
B7 | no binding | no binding | binds | no binding
B8 | no binding | no binding | binds | no binding
B9 | no binding | no binding | binds | no binding
